Test results from patent US8586570B2, “Sox-based kinase sensor” (Massachusetts Institute of Technology, priority 2006, dated 2013).

Tests used:
PKCε = molecular target: T1, PKCε (Homo sapiens, UniProt Q02156); assay: Cross-reactivity of PKCα-S10 with PKC isozymes; format: biochemical; details: peptide 1 μM, isozyme 2 ng
T1 sequence (Q02156 1-737): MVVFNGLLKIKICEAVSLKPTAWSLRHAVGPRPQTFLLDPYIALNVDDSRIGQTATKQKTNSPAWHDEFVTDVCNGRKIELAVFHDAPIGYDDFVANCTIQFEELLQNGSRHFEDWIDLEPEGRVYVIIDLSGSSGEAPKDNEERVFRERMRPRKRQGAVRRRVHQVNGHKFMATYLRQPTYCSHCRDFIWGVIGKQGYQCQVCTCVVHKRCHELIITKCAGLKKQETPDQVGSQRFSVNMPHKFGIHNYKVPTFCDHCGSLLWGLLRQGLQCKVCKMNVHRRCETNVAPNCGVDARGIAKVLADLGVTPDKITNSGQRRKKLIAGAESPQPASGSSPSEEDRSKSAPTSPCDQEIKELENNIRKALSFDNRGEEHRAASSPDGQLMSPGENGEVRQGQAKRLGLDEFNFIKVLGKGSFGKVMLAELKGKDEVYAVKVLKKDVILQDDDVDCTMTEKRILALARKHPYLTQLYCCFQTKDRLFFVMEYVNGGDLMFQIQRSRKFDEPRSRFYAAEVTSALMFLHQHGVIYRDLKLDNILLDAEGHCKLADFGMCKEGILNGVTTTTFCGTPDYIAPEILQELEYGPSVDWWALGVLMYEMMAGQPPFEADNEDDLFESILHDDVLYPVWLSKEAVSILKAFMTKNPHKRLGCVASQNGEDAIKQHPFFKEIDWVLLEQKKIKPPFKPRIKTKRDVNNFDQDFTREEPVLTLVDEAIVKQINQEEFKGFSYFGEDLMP
Protocol: (§1) With the kinetic parameters at hand it is possible to test the cross-reactivity of PKCα-S10 with PKC isozymes. In 12 separate reactions PKCα-S10 (1 μM) is subjected to phosphorylation with PKCα, PKCβI, PKCβII, PKCγ, PKCδ, PKCε, PKCζ, PKCη, PKCθ, PKCι, PKCμ and PKCν (2 ng).

PKCδ = PKCδ (Homo sapiens, UniProt Q05655); assay: Cross-reactivity of PKCα-S10 with PKC isozymes; format: biochemical; details: peptide 1 μM, isozyme 2 ng
Protocol: as §1

[1] = Fluorescence increase, phosphopeptide vs unphosphorylated peptide at 485 nm; format: physicochemical; details: phosphopeptide / unphosphorylated peptide intensity at 485 nm, generally 10 mM Mg2+
Protocol: Fluorescence experiments were performed on a Fluoromax 3 from Jobin Yvon. 5 nm emission and excitation slit widths were used. For all experiments, an excitation wavelength of 360 nm was used. Enzyme assays were performed by monitoring emission at 485 nm.
After peptide characterization, emission spectra were obtained for unphosphorylated and phosphorylated peptides under appropriate conditions. The spectra were generally acquired in the presence of 10 mM Mg^2+(although lower Mg^2+concentrations can and have been used as well) and either 0, 0.1 or 1 mM ATP in a preselected buffer (usually 20 mM HEPES, pH 7.4). Relying on the emission spectra the fold fluorescence differences were measured by dividing the fluorescence intensity of the phosphopeptide by the fluorescence intensity of its unphosphorylated counterpart at 485 nm. FIG. 2 depicts the fluorescence spectra of the phosphorylated and unphosphorylated peptides in the appropriate assay mixture: (A) emissions scans of PKCβI-1 (10 μM), 10 mM Mg(II), 3×; (B) emissions scans of PKCβI-1 (10 μM), 10 mM Mg(II), 0 mM ATP, 3×.; (C) fluorescence difference for PKCβI-1 (10 μM), 10 mM Mg(II), 3×; (D) fluorescence increase for PKCβI-1 (10 μM) at 10 mM Mg (II).

Sequence of PKCδ (Q05655 whole entry): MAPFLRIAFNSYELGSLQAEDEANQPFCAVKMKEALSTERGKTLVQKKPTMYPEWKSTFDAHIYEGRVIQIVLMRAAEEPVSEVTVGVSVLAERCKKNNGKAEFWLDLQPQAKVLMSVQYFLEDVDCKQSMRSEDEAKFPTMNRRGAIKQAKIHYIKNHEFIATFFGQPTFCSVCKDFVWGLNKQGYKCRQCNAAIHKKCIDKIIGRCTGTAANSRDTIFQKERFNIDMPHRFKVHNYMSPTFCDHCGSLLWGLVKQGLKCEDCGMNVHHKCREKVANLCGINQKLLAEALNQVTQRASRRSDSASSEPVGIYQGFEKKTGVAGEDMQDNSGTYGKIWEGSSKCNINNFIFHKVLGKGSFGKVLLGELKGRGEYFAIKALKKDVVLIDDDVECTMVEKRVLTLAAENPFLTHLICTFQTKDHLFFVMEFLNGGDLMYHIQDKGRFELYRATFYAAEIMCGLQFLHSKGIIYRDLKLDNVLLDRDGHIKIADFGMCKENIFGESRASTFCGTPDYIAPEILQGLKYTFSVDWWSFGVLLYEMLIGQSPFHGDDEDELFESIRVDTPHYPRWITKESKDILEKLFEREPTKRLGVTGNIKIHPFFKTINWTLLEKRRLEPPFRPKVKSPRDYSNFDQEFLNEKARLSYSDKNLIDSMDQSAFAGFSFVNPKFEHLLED

Ac-RRR-C(Sox)-ASFRRKA-CONH2 [PKCα-S10(P10), Sox chemosensor with extended recognition domain for PKCα]
activity of isozyme on peptide (PKCε): very little activity
activity of isozyme on peptide (PKCδ): no activity
Fluorescence Increase [1]: 3.9 x
